Experimental data from publication PMC1626105.

target: Elongin B, expressed in Saos-2 cells (UniProt Q15370); experiment: co-immunoprecipitation (IP: myc, IB: HA) with band densitometry; settings: Saos-2 cells co-transfected with LANA-myc and HA-Elo.BC; parent: est. 4.0; read off a plot
Sequence of UniProt Q15370 (Q15370 whole entry): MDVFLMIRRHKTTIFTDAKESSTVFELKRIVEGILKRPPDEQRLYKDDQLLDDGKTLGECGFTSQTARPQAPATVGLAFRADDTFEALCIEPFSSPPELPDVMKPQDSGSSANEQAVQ

Substance | response [RD]
KSHV latency-associated nuclear antigen (LANA), full length, myc-tagged L213G | 0.4
KSHV latency-associated nuclear antigen (LANA), full length, myc-tagged L213P; C217F | 1.3
KSHV latency-associated nuclear antigen (LANA), full length, myc-tagged C217G | 0.4
